The source of these data is the supplement of paper PMC7125110.

± gives the standard error. This sample holds only a part of the variants without activity.

First the molecules themselves.
B1: glmS ribozyme (parent)
chain: AUAAAAGCGCCAGAACUACAGAAAUGUAGUUGACGAGGAGGAGGUUUAUCGAAUUUUCGGCGGAUGCCUCCAAA

Details in all cases: with glucosamine-6-phosphate
The variants in series [1] derive from B1. As to the kind of experiment: self-cleavage kobs at 40 uM GlcN6P; higher = faster cleavage; RNA array. Summed up:
(§1)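 E. coli RNA polymerase transcribed barcoded ribozyme variants in situ on sequenced MiSeq chips, which were tracked via a hybridised Cy3 probe at 37 °C. Tiles were imaged over ~14 h after glucosamine-6-phosphate (40 μM to 10 mM) in HEPES/KCl/Mg(OAc)2 buffer was flowed in. Normalised per-tile medians were fit to one- or two-exponential decays for kobs, and kcat and KM came from weighted Michaelis–Menten fits.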

In series [2] the parent is B1. Put plainly: self-cleavage kobs at 160 uM GlcN6P; higher = faster cleavage; RNA array. In outline: as §1
The variants in series [3] derive from B1. As to the kind of experiment: self-cleavage kobs at 640 uM GlcN6P; higher = faster cleavage; RNA array. Summed up: as §1
Variants of B1 are the subject of series [4]. As to the kind of experiment: self-cleavage kobs at 2500 uM GlcN6P; higher = faster cleavage; RNA array. In outline:
as §1

Variants of B1 are the subject of series [5]. As to the kind of experiment: self-cleavage kobs at 10000 uM GlcN6P; higher = faster cleavage; RNA array. In outline:
as §1

In the case of G7U A42G, the “self-cleavage kobs at 40 uM GlcN6P” value with glucosamine-6-phosphate [1] is under 1e-05 s⁻¹. For the same variant, the “self-cleavage kobs at 160 uM GlcN6P” value with glucosamine-6-phosphate [2] is under 1e-05 s⁻¹. For the same variant, the “self-cleavage kobs at 640 uM GlcN6P” value with glucosamine-6-phosphate [3] was under 1e-05 s⁻¹. Moreover, the “self-cleavage kobs at 2500 uM GlcN6P” value with glucosamine-6-phosphate [4] was under 1e-05 s⁻¹. Besides, the “self-cleavage kobs at 10000 uM GlcN6P” value with glucosamine-6-phosphate [5] is under 1e-05 s⁻¹.

Regarding C16G G40A A64C, the “self-cleavage kobs at 40 uM GlcN6P” value with glucosamine-6-phosphate [1] was under 1e-05 s⁻¹. In addition, the “self-cleavage kobs at 10000 uM GlcN6P” value with glucosamine-6-phosphate [5] is under 1e-05 s⁻¹.

Take G37C G44A: the “self-cleavage kobs at 40 uM GlcN6P” value with glucosamine-6-phosphate [1] was under 1e-05 s⁻¹. Also, in the series with glucosamine-6-phosphate [2], the “self-cleavage kobs at 160 uM GlcN6P” value was under 1e-05 s⁻¹. Besides, the “self-cleavage kobs at 640 uM GlcN6P” value with glucosamine-6-phosphate [3] was under 1e-05 s⁻¹. Also, the “self-cleavage kobs at 10000 uM GlcN6P” value with glucosamine-6-phosphate [5] was under 1e-05 s⁻¹.

Turning to C10U U45G, in the series with glucosamine-6-phosphate [1], the “self-cleavage kobs at 40 uM GlcN6P” value was under 1e-05 s⁻¹. Also, the “self-cleavage kobs at 160 uM GlcN6P” value with glucosamine-6-phosphate [2] was under 1e-05 s⁻¹. Moreover, the “self-cleavage kobs at 640 uM GlcN6P” value in the series with glucosamine-6-phosphate [3] was under 1e-05 s⁻¹. For the same variant, in the series with glucosamine-6-phosphate [5], the “self-cleavage kobs at 10000 uM GlcN6P” value is under 1e-05 s⁻¹.

For the variant C16U G35A, in the series with glucosamine-6-phosphate [1], the “self-cleavage kobs at 40 uM GlcN6P” value is under 1e-05 s⁻¹. The “self-cleavage kobs at 160 uM GlcN6P” value in the series with glucosamine-6-phosphate [2] is under 1e-05 s⁻¹. Further, the “self-cleavage kobs at 640 uM GlcN6P” value with glucosamine-6-phosphate [3] was under 1e-05 s⁻¹.

Take C8A C10G: the “self-cleavage kobs at 40 uM GlcN6P” value in the series with glucosamine-6-phosphate [1] is under 1e-05 s⁻¹. Moreover, the “self-cleavage kobs at 160 uM GlcN6P” value with glucosamine-6-phosphate [2] was under 1e-05 s⁻¹. In addition, in the series with glucosamine-6-phosphate [3], the “self-cleavage kobs at 640 uM GlcN6P” value was under 1e-05 s⁻¹. The “self-cleavage kobs at 2500 uM GlcN6P” value with glucosamine-6-phosphate [4] is under 1e-05 s⁻¹. Further, the “self-cleavage kobs at 10000 uM GlcN6P” value in the series with glucosamine-6-phosphate [5] is under 1e-05 s⁻¹.

As for G29A C61U G63A, the “self-cleavage kobs at 40 uM GlcN6P” value in the series with glucosamine-6-phosphate [1] is under 1e-05 s⁻¹.

On to G29C G40C U65C, for which the “self-cleavage kobs at 40 uM GlcN6P” value in the series with glucosamine-6-phosphate [1] is under 1e-05 s⁻¹.

Turning to U31C G44A C71U, the “self-cleavage kobs at 40 uM GlcN6P” value in the series with glucosamine-6-phosphate [1] is under 1e-05 s⁻¹. Moreover, the “self-cleavage kobs at 160 uM GlcN6P” value in the series with glucosamine-6-phosphate [2] was under 1e-05 s⁻¹. Further, in the series with glucosamine-6-phosphate [3], the “self-cleavage kobs at 640 uM GlcN6P” value was under 1e-05 s⁻¹.

A14G A42G: in the series with glucosamine-6-phosphate [1], the “self-cleavage kobs at 40 uM GlcN6P” value was found to be 0.0027 ± 0.00037 s⁻¹. Besides, in the series with glucosamine-6-phosphate [2], the “self-cleavage kobs at 160 uM GlcN6P” value stood at 0.00391 ± 0.0011 s⁻¹. The “self-cleavage kobs at 640 uM GlcN6P” value with glucosamine-6-phosphate [3] was 0.00956 ± 0.0029 s⁻¹. Besides, in the series with glucosamine-6-phosphate [4], the “self-cleavage kobs at 2500 uM GlcN6P” value was determined as 0.0467 ± 0.022 s⁻¹. For the same variant, the “self-cleavage kobs at 10000 uM GlcN6P” value in the series with glucosamine-6-phosphate [5] came to 0.0773 ± 0.025 s⁻¹.

Take U30A C70U: in the series with glucosamine-6-phosphate [1], the “self-cleavage kobs at 40 uM GlcN6P” value was found to be 0.000214 ± 3.6e-05 s⁻¹. Also, the “self-cleavage kobs at 160 uM GlcN6P” value in the series with glucosamine-6-phosphate [2] is 0.000386 ± 7.4e-05 s⁻¹. In the series with glucosamine-6-phosphate [3], the “self-cleavage kobs at 640 uM GlcN6P” value stood at 0.000765 ± 0.00011 s⁻¹. In addition, the “self-cleavage kobs at 2500 uM GlcN6P” value with glucosamine-6-phosphate [4] is 0.00125 ± 0.00027 s⁻¹. Besides, the “self-cleavage kobs at 10000 uM GlcN6P” value with glucosamine-6-phosphate [5] came out at 0.00358 ± 0.00063 s⁻¹.

As for A6C G29C A36G, in the series with glucosamine-6-phosphate [1], the “self-cleavage kobs at 40 uM GlcN6P” value is under 1e-05 s⁻¹. The “self-cleavage kobs at 160 uM GlcN6P” value with glucosamine-6-phosphate [2] was under 1e-05 s⁻¹. The “self-cleavage kobs at 2500 uM GlcN6P” value in the series with glucosamine-6-phosphate [4] is under 1e-05 s⁻¹. Further, in the series with glucosamine-6-phosphate [5], the “self-cleavage kobs at 10000 uM GlcN6P” value was under 1e-05 s⁻¹.

With A36C G41U U45G C67G, the “self-cleavage kobs at 40 uM GlcN6P” value with glucosamine-6-phosphate [1] is under 1e-05 s⁻¹. For the same variant, the “self-cleavage kobs at 10000 uM GlcN6P” value in the series with glucosamine-6-phosphate [5] is under 1e-05 s⁻¹.

Consider A39U U45A, for which, in the series with glucosamine-6-phosphate [1], the “self-cleavage kobs at 40 uM GlcN6P” value stood at 0.000759 ± 9.8e-05 s⁻¹. For the same variant, in the series with glucosamine-6-phosphate [2], the “self-cleavage kobs at 160 uM GlcN6P” value worked out at 0.00209 ± 0.00053 s⁻¹. The “self-cleavage kobs at 640 uM GlcN6P” value with glucosamine-6-phosphate [3] was found to be 0.0067 ± 0.0015 s⁻¹. Moreover, the “self-cleavage kobs at 2500 uM GlcN6P” value in the series with glucosamine-6-phosphate [4] was found to be 0.0135 ± 0.0033 s⁻¹. For the same variant, the “self-cleavage kobs at 10000 uM GlcN6P” value with glucosamine-6-phosphate [5] was 0.0807 ± 0.02 s⁻¹.

In the case of A14U U46G G63A U65A C70G C71G, the “self-cleavage kobs at 40 uM GlcN6P” value with glucosamine-6-phosphate [1] stood at 4.47e-05 ± 2e-05 s⁻¹.

For G9C C67G, in the series with glucosamine-6-phosphate [1], the “self-cleavage kobs at 40 uM GlcN6P” value is under 1e-05 s⁻¹. Besides, the “self-cleavage kobs at 160 uM GlcN6P” value with glucosamine-6-phosphate [2] is under 1e-05 s⁻¹. In the series with glucosamine-6-phosphate [3], the “self-cleavage kobs at 640 uM GlcN6P” value is under 1e-05 s⁻¹. For the same variant, the “self-cleavage kobs at 2500 uM GlcN6P” value with glucosamine-6-phosphate [4] was under 1e-05 s⁻¹. Besides, the “self-cleavage kobs at 10000 uM GlcN6P” value with glucosamine-6-phosphate [5] was under 1e-05 s⁻¹.

As for G35U C67G C71A, in the series with glucosamine-6-phosphate [1], the “self-cleavage kobs at 40 uM GlcN6P” value is under 1e-05 s⁻¹.

For A33G A52C U55G, in the series with glucosamine-6-phosphate [1], the “self-cleavage kobs at 40 uM GlcN6P” value was under 1e-05 s⁻¹.

Regarding A15C G37U, the “self-cleavage kobs at 40 uM GlcN6P” value with glucosamine-6-phosphate [1] is under 1e-05 s⁻¹. The “self-cleavage kobs at 640 uM GlcN6P” value with glucosamine-6-phosphate [3] was under 1e-05 s⁻¹. For the same variant, the “self-cleavage kobs at 10000 uM GlcN6P” value with glucosamine-6-phosphate [5] was under 1e-05 s⁻¹.

For C8A G29C G35A C67G, in the series with glucosamine-6-phosphate [1], the “self-cleavage kobs at 40 uM GlcN6P” value is under 1e-05 s⁻¹.

In the case of C10G A39C U45A U54G G62C, the “self-cleavage kobs at 40 uM GlcN6P” value in the series with glucosamine-6-phosphate [1] is under 1e-05 s⁻¹. For the same variant, in the series with glucosamine-6-phosphate [5], the “self-cleavage kobs at 10000 uM GlcN6P” value was under 1e-05 s⁻¹.
